{"source": "paper doi:10.1101/2022.04.28.489915", "about": "(bioRxiv, 2022)", "binders": {"B1": {"name": "residues 1-190 of colicin E1 (colE1-T) (domain or fragment)", "chain": "METAVAYYKDGVPYDDKGQVIITLLNGTPDGSGSGGGGGKGGSKSESSAAIHATAKWSTAQLKKTQAEQAARAKAAAEAQAKAKANRDALTQRLKDIVNEALRHNASRTPSATELAHANNAAMQAEDERLRLAKAEEKARKEAEAAEKAFQEAEQRRKEIEREKAETERQLKLAEAEEKRLAALSEEAKA"}}, "target": "T1, TolC (E. coli, UniProt P02930 23-493)", "T1 sequence": "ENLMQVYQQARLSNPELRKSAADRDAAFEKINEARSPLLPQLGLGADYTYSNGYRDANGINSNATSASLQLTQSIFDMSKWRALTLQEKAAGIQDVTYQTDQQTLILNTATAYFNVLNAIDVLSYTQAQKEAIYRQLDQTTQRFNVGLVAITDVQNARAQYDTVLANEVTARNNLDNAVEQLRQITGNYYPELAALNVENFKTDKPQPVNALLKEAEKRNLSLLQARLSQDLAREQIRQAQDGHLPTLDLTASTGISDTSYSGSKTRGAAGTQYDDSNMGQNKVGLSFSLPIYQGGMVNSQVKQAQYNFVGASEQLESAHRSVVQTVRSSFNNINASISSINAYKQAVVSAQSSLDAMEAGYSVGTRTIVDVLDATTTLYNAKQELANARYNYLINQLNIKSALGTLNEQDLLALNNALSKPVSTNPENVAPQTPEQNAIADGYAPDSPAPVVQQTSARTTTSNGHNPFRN", "assay": "SEC"}
{"binder": "B1", "values": [{"measurement": "binding result", "result": "binds"}]}
